Assay results published in FireProtDB (doi:10.1021/bi00021a022).

Conditions: Saccharomyces cerevisiae (strain ATCC 204508 / S288c), reversible: yes
[1] = pH 4.6, 27 °C, Thermal, DSC, Potassium acetate 50 mM, structure 1YCC
[2] = pH 4.6, Thermal, DSC, Potassium acetate 50 mM, structure 1YCC
[3] = pH 7, 22 °C, GdnHCl, Fluorescence, Potassium phosphate 0.1 M, structure 1YCC
[4] = pH 3.5, 27 °C, Thermal, DSC, Potassium acetate 50 mM, structure 1YCC
[5] = pH 3.5, Thermal, DSC, Potassium acetate 50 mM, structure 1YCC
[6] = pH 4, 27 °C, Thermal, DSC, Potassium acetate 50 mM, structure 1YCC
[7] = pH 5, 27 °C, Thermal, DSC, Potassium acetate 50 mM, structure 1YCC
[8] = pH 5, Thermal, DSC, Potassium acetate 50 mM, structure 1YCC
[9] = pH 4, Thermal, DSC, Potassium acetate 50 mM, structure 1YCC
[10] = pH 3.5, Thermal, DSC, Potassium acetate 50 mM
[11] = pH 4, Thermal, DSC, Potassium acetate 50 mM
[12] = pH 4.6, Thermal, DSC, Potassium acetate 50 mM
[13] = pH 5, Thermal, DSC, Potassium acetate 50 mM
[14] = pH 7, 22 °C, GdnHCl, Fluorescence, Potassium phosphate 0.1 M

Chain of Cytochrome c isoform 1 N58I, P00044 (P00044 whole entry N58I, canonical isoform): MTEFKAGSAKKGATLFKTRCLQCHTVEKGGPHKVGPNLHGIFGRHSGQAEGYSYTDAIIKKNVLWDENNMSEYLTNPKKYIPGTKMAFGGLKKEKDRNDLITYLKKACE
Chain of Cytochrome c isoform 1 wild type, P00044 (P00044 whole entry, canonical isoform): as the sequence (P00044 whole entry N58I, canonical isoform) above, with I58N counted along it
Chain of Cytochrome c isoform 1 N58T, P00044 (P00044 whole entry N58T, canonical isoform): as the sequence (P00044 whole entry N58I, canonical isoform) above, with I58T counted along it
Chain of Cytochrome c isoform 1 N58S, P00044 (P00044 whole entry N58S, canonical isoform): as the sequence (P00044 whole entry N58I, canonical isoform) above, with I58S counted along it
Chain of Cytochrome c isoform 1 N58A, P00044 (P00044 whole entry N58A, canonical isoform): as the sequence (P00044 whole entry N58I, canonical isoform) above, with I58A counted along it
Chain of Cytochrome c isoform 1 N58M, P00044 (P00044 whole entry N58M, canonical isoform): as the sequence (P00044 whole entry N58I, canonical isoform) above, with I58M counted along it
Chain of Cytochrome c isoform 1 N58Q, P00044 (P00044 whole entry N58Q, canonical isoform): as the sequence (P00044 whole entry N58I, canonical isoform) above, with I58Q counted along it
Chain of Cytochrome c isoform 1 N58H, P00044 (P00044 whole entry N58H, canonical isoform): as the sequence (P00044 whole entry N58I, canonical isoform) above, with I58H counted along it
Chain of Cytochrome c isoform 1 N58V, P00044 (P00044 whole entry N58V, canonical isoform): as the sequence (P00044 whole entry N58I, canonical isoform) above, with I58V counted along it

Substance | ddG of mutation (higher = less stable) [1] [kcal/mol] | unfolding free energy [1] [kcal/mol] | Tm [2] [°C] | change of melting temperature, mutant - wild type (higher = more stable) [2] [°C] | unfolding enthalpy (calorimetric) [2] [kcal/mol] | ddG of mutation (higher = less stable) [3] [kcal/mol] | denaturant midpoint (higher = more stable) [3] [M] | unfolding free energy [3] [kcal/mol] | ddG of mutation (higher = less stable) [6] [kcal/mol] | unfolding free energy [6] [kcal/mol] | ddG of mutation (higher = less stable) [7] [kcal/mol] | unfolding free energy [7] [kcal/mol] | Tm [8] [°C] | change of melting temperature, mutant - wild type (higher = more stable) [8] [°C] | unfolding enthalpy (calorimetric) [8] [kcal/mol] | Tm [9] [°C] | change of melting temperature, mutant - wild type (higher = more stable) [9] [°C] | unfolding enthalpy (calorimetric) [9] [kcal/mol] | other results
Cytochrome c isoform 1 N58A, P00044 | -0.63 | 4.66 | 53.7 | 4.5 | 84 | -2.97 | 1.52 | 8.83 |  |  |  |  |  |  |  |  |  |  | 
Cytochrome c isoform 1 N58L, P00044 | -2.56 | 6.59 | 62.1 | 12.9 | 97.4 | -4.73 | 2.17 | 10.6 |  |  |  |  |  |  |  |  |  |  | 
Cytochrome c isoform 1 N58I, P00044 |  |  | 62.2 | 13 | 101 | -4.1 | 2.09 | 9.96 | -3.03 | 5.55 | -2.02 | 7.64 | 64.2 | 0.9 | 108 |  |  |  | ddG of mutation (higher = less stable) [4]: -2.62 kcal/mol; unfolding free energy [4]: 4.26 kcal/mol; Tm [5]: 52.4 °C; change of melting temperature, mutant - wild type (higher = more stable) [5]: 12.3 °C; unfolding enthalpy (calorimetric) [5]: 80.7 kcal/mol
Cytochrome c isoform 1 N58V, P00044 | -1.67 | 5.7 | 58 | 8.8 | 92.4 | -2.02 | 1.77 | 7.88 | -2.44 | 4.96 |  |  |  |  |  | 54.3 | 8.9 | 86.5 | 
Cytochrome c isoform 1 N58S, P00044 | 0.05 | 3.98 | 51 | 1.8 | 78.7 |  |  |  | -0.74 | 3.26 | 1.29 | 4.33 | 52.6 | -10.7 | 83.2 | 46.7 | 1.3 | 70.8 | 
Cytochrome c isoform 1 N58Q, P00044 |  | 3.95 | 51.2 | 2 | 78.7 |  | 1.39 | 5.02 |  |  |  |  |  |  |  |  |  |  | 
Cytochrome c isoform 1 N58H, P00044 | 1.27 | 2.76 | 47.5 | -1.7 | 64.1 | 1.7 | 1.41 | 4.16 |  |  |  |  |  |  |  |  |  |  | 
Cytochrome c isoform 1 N58M, P00044 | -2.25 | 6.28 | 62.6 | 13.4 | 96 | -4.04 | 2.14 | 9.9 | -2.91 | 5.43 |  |  |  |  |  | 58.9 | 13.5 | 89 | 
Cytochrome c isoform 1 wild type, P00044 |  |  |  |  |  |  |  |  |  |  |  |  |  |  |  |  |  |  | unfolding free energy (pH 3.5, 27 °C, Thermal, DSC, Potassium acetate 50 mM): 1.64 kcal/mol; Tm [10]: 40.1 °C; unfolding enthalpy (calorimetric) [10]: 55.3 kcal/mol; unfolding free energy (pH 4, 27 °C, Thermal, DSC, Potassium acetate 50 mM): 2.52 kcal/mol; Tm [11]: 45.4 °C; unfolding enthalpy (calorimetric) [11]: 64.2 kcal/mol; unfolding free energy (pH 4.6, 27 °C, Thermal, DSC, Potassium acetate 50 mM): 4.03 kcal/mol; Tm [12]: 49.2 °C; unfolding enthalpy (calorimetric) [12]: 78.8 kcal/mol; unfolding free energy (pH 5, 27 °C, Thermal, DSC, Potassium acetate 50 mM): 5.62 kcal/mol; Tm [13]: 63.3 °C; unfolding enthalpy (calorimetric) [13]: 107 kcal/mol; denaturant midpoint (higher = more stable) [14]: 1.34 M; unfolding free energy [14]: 5.86 kcal/mol
Cytochrome c isoform 1 N58T, P00044 | -0.59 | 4.62 | 54.5 | 5.3 | 82.9 | -1.9 | 1.58 | 7.76 | -1.01 | 3.53 | 0.53 | 5.09 | 55.3 | -8 | 88.6 | 49.2 | 3.8 | 75.3 | ddG of mutation (higher = less stable) [4]: -0.98 kcal/mol; unfolding free energy [4]: 2.62 kcal/mol; Tm [5]: 45.4 °C; change of melting temperature, mutant - wild type (higher = more stable) [5]: 5.3 °C; unfolding enthalpy (calorimetric) [5]: 63.4 kcal/mol
